Data as given in publication PMC314469, “Protein Interaction Networks by Proteome Peptide Scanning” (PLoS Biology, 2004).

T1: amphyphisin SH3 (AMPH_HUMAN), P49418
T1 chain: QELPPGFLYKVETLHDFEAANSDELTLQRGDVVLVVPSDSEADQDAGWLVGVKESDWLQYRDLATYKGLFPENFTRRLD


Each binder was assayed against endophilin SH3 (SH3G2_HUMAN), Q99962 (assay: SPOT array).

Row | Binder | normalised SPOT signal, Boehringer light units (BLU); mean over the file's lines of this peptide
1 | APPELRRPSHLHTS [Q8WU02 149-162] | 145
2 | LHGRPYRPPSPPPP [O75593 148-162] | 246
3 | LGRLPSRPPLPGSG [Q9Y570 9-23] | 14800
4 | LHESFPRPKRVSKD [P42568 55-68] | 391
5 | LIRTFQRPDRVELM [Q9UMF0 113-126] | 224
6 | LLLHPRRPRLHPGT [O95141 51-64] | 1540
7 | LKVQLKRPKDANRP [Q9NR84 149-162] | 69
8 | LLLPPPRPPHSDIT [Q9H6X1 45-59] | 1430
9 | APPPPSRPPQPRPG [Q9NRK3 42-56] | 3870
10 | LLNTLKRPKRPPLK [Q96NX2 21-34] | 85
11 | LGPVPVRPPPGPEL [Q9Y5L9 821-835] | 81.8
12 | LLLLLYRPPRYQIA [O60725 54-67] | 89.6
13 | LLLGIRRPEFLSRP [Q9NWT5 57-70] | 1340
14 | LLGKPKRPRSAYNV [Q00059 151-164] | 268
15 | LLSWIKRPSQRALR [Q9P145 28-41] | 568
16 | LGLRLSRPYRLAAG [O14927 499-512] | 315
17 | LLEQILRPSKFLTY [Q9P0V3 740-753] | 6.9
18 | LLIIISRPARLLES [O60307 271-284] | 87.4
19 | LGLPPGKPPSSSPL [Q9H7S9 349-363] | 45.5
20 | LLFSLRRPSSTVTM [Q96SW7 100-113] | 537
21 | LGLLFRRPEALQVG [Q13290 172-185] | 61.1

Row | Binder | normalised SPOT signal, Boehringer light units (BLU); mean over the file's lines of this peptide
22 | LKGIFTRPSKLTRK [P30622 114-127] | 192
23 | LGLSFRRPNVITLL [Q9ULA1 146-159] | 300
24 | LLMVPRRPGYGAMG [Q9H9G7 14-27] | 3260
25 | LKAPPARPVKGAYR [Q99760 384-397] | 3650
26 | LHVQLNRPNKRNAM [Q13011 68-81] | 128
27 | LHLVIRRPLETHPG [Q9H6Y5 142-155] | 596
28 | APPLPVRPPKTSPG [Q96FN5 451-465] | 2280
29 | LLEPPERPYRDREP [Q9HCM7 689-702] | 80.4
30 | LGKVIRRPPLTEKL [Q9NRD6 13-26] | 277
31 | LKEILKRPVDPIRA [O43630 494-507] | 55.3
32 | LLDTIKRPALQGLS [Q9P2D8 4-17] | 47.1
33 | LGQKPQRPRRPASP [P07360 19-32] | 34600
34 | LLMVPRRPGYGTMG [Q96JZ0 14-27] | 1280
35 | LGLELGRPVRFLYE [P13942 112-125] | 245
36 | LIQELRRPKYSIYF [Q15715 82-95] | 169
37 | LLGPFRRPTTQLRA [P25100 499-512] | 614
38 | LGPVPHRPPFEPGS [P54259 848-862] | 41.8
39 | LKVWPPRPGRWPSF [Q9NQQ2 431-444] | 1090
40 | APPQIRRPNREVRP [Q9BW62 109-122] | 638
41 | LIRFLPRPIRQQLL [Q12789 943-956] | 3730
42 | LILPPPRPPLAVTS [O60241 813-827] | 3500

Biological target: T1, amphyphisin SH3 (AMPH_HUMAN), P49418
Assay: SPOT array

Row | Binder | normalised SPOT signal, Boehringer light units (BLU); mean over the file's lines of this peptide
43 | APPELRRPSHLHTS [Q8WU02 149-162] | 33.1
44 | LHGRPYRPPSPPPP [O75593 148-162] | 218
45 | LGRLPSRPPLPGSG [Q9Y570 9-23] | 269
46 | LHESFPRPKRVSKD [P42568 55-68] | 3510
47 | LIRTFQRPDRVELM [Q9UMF0 113-126] | 6100
48 | LLLHPRRPRLHPGT [O95141 51-64] | 87
49 | LKVQLKRPKDANRP [Q9NR84 149-162] | 28.8
50 | LLLPPPRPPHSDIT [Q9H6X1 45-59] | 873
51 | APPPPSRPPQPRPG [Q9NRK3 42-56] | 856
52 | LLNTLKRPKRPPLK [Q96NX2 21-34] | 443
53 | LGPVPVRPPPGPEL [Q9Y5L9 821-835] | 33.4
54 | LLLLLYRPPRYQIA [O60725 54-67] | 159
55 | LLLGIRRPEFLSRP [Q9NWT5 57-70] | 51.2
56 | LLGKPKRPRSAYNV [Q00059 151-164] | 45.3
57 | LLSWIKRPSQRALR [Q9P145 28-41] | 28.6
58 | LGLRLSRPYRLAAG [O14927 499-512] | 1650
59 | LLEQILRPSKFLTY [Q9P0V3 740-753] | 29.9
60 | LLIIISRPARLLES [O60307 271-284] | 90.2
61 | LGLPPGKPPSSSPL [Q9H7S9 349-363] | 23.4
62 | LLFSLRRPSSTVTM [Q96SW7 100-113] | 54.9
63 | LGLLFRRPEALQVG [Q13290 172-185] | 12.2

Row | Binder | normalised SPOT signal, Boehringer light units (BLU); mean over the file's lines of this peptide
64 | LKGIFTRPSKLTRK [P30622 114-127] | 121
65 | LGLSFRRPNVITLL [Q9ULA1 146-159] | 38.4
66 | LLMVPRRPGYGAMG [Q9H9G7 14-27] | 183
67 | LKAPPARPVKGAYR [Q99760 384-397] | 238
68 | LHVQLNRPNKRNAM [Q13011 68-81] | 193
69 | LHLVIRRPLETHPG [Q9H6Y5 142-155] | 49.4
70 | APPLPVRPPKTSPG [Q96FN5 451-465] | 4490
71 | LLEPPERPYRDREP [Q9HCM7 689-702] | 188
72 | LGKVIRRPPLTEKL [Q9NRD6 13-26] | 4.7
73 | LKEILKRPVDPIRA [O43630 494-507] | 5.8
74 | LLDTIKRPALQGLS [Q9P2D8 4-17] | 41.8
75 | LGQKPQRPRRPASP [P07360 19-32] | 16800
76 | LLMVPRRPGYGTMG [Q96JZ0 14-27] | 816
77 | LGLELGRPVRFLYE [P13942 112-125] | 218
78 | LIQELRRPKYSIYF [Q15715 82-95] | 46.5
79 | LLGPFRRPTTQLRA [P25100 499-512] | 336
80 | LGPVPHRPPFEPGS [P54259 848-862] | 65.2
81 | LKVWPPRPGRWPSF [Q9NQQ2 431-444] | 2610
82 | APPQIRRPNREVRP [Q9BW62 109-122] | 3240
83 | LIRFLPRPIRQQLL [Q12789 943-956] | 1740
84 | LILPPPRPPLAVTS [O60241 813-827] | 1060
